Here are results for four molecules from article PMC7013354, “Selection and Characterization of CSFV-Specific Single-Domain Antibodies and Their Application along with Immunomagnetic Nanobeads and Quantum Dots” (BioMed Research International, 2020).

Common to all, as to details: one partner purified
Assay [1] addresses T1, E2 of CSFV in infected ST cells and on CSFV virions (Classical swine fever virus, C-strain, UniProt Q96891, strain).
T1 construct: also called E2 of CSFV in ST cells
Briefly: immunostaining of cells or tissue.

The target of assay [2] is T1, E2 of CSFV in infected ST cells and on …. Briefly: far-Western, overlay or dot blot.
Assay [3] has the same target. Briefly: pull-down.

B1: AF488-sdAbE2-2 probe (VHH)
VHH: DVQLVESGGGLVQAGGSLRLSCTASGFTFDDYAMAWFRQPPGKEREGVSCISSSGGSTWYADSVKGRFTVSRDNAKNTLYLQMNSLKPEDTAMYYCAADWGRLCVVRGPRNEYKYSGQGTQVTVSS
notes: also called AF488-labeled sdAbE2-2
For B1, the binding result in assay [1] is on record as “binds”.

B2: recombinant sdAbE2-2 (VHH)
VHH: B1 VHH
notes: also called sdAdE2-2; sdAbE2s
With B2, the binding result in assay [2] is reported as “binds”.

B3: recombinant sdAbE2-1 (VHH)
VHH: QVQLLESGGGLVQPGGSLRLSCAASGYSFIDKTMAWVRQAPGKGLEWVSAIRMHNGSTYYADSVKGRFTISRDNSKNTLYLQMNSLRAEDTAVYYCARLSRRIQAKDKAKLKYWGQGTLVTVSS
notes: also called sdAdE2-1; sdAbE2s
For B3, in assay [3], the binding result was “binds”.

B4: QD-sdAbE2-1 probe (VHH)
VHH: B3 VHH
notes: also called QD605-labeled sdAbE2-1; QDs-sdAbE2-1
For the molecule B4, the binding result in assay [1] was “binds”.
